Common to all, as to assay: cell_activity; PAM NGG; HEK293T
Common to all, as to conditions: tags: N- and C-terminal NLS

Series [1] has as its target T1, Nuclease K D582R (D582R).
T1 chain: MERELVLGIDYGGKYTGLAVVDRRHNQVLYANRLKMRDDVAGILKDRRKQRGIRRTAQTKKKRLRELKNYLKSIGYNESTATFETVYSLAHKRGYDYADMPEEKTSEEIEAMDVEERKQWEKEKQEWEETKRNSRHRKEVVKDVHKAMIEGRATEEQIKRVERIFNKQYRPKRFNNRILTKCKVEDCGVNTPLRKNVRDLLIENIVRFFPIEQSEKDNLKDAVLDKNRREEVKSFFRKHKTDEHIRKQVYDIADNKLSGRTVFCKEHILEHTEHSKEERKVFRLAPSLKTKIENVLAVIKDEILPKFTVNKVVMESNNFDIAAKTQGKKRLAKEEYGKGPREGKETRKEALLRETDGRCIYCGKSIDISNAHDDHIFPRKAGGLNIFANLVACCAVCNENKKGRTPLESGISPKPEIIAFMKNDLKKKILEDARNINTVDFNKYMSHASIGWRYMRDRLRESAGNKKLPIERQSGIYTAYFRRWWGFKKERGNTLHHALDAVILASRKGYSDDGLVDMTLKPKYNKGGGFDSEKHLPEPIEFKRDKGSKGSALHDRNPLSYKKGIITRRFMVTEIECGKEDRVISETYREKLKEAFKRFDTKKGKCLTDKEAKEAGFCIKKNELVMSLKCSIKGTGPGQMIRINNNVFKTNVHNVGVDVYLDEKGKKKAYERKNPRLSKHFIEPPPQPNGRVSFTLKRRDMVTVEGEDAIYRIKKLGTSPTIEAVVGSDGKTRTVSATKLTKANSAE

The target in series [2] is T2, Nuclease K D46R (D46R).
T2 chain: T1 chain with D46R, R582D

Series [3] concerns the target T3, Nuclease K G42R (G42R).
T3 chain: T1 chain with G42R, R582D

Numbering of substitutions follows the chain as printed.

This note sets out measurements from patent US20260275311, “CRISPR NUCLEASE POLYPEPTIDES AND GENE EDITING SYSTEMS COMPRISING SUCH” (ARBOR BIOTECHNOLOGIES, INC., published 2026).

B1: Nuclease K AAVS1-T3 guide ; AAVS1-T3 target (ssRNA ; dsDNA)
RNA: UUGUGAGAAUGGUGCGUCCUGUUACAGUUAAGGCUCUGAAAAGAGCCUUAAUUGUAAAACGCCUAUACAGUGAAGGGAUAUACGCUUGGGUUUGUCCAGCCUGAGCCUCUAUGCCAGAAAUGGCGCCUUCAUCGUGGGUUAGGACAUUUAAAUUUAAAAACUAUUCAGCACUGUUUGCUCUUGUCAGCUUGGUGGCAGA
DNA 1: TTGTGAGAATGGTGCGTCCT
DNA 2: AGGACGCACCATTCTCACAA
Regarding B1, the binding signal in series [1] was determined as 3.68 fold vs Nuclease K; in series [2], 6.71 fold vs Nuclease K; in series [3] it was 3.94 fold vs Nuclease K.

B2: Nuclease K EMX1-T7 guide ; EMX1-T7 target (ssRNA ; dsDNA)
RNA: CUUUAGCAAGGGACUAUUCAGUUACAGUUAAGGCUCUGAAAAGAGCCUUAAUUGUAAAACGCCUAUACAGUGAAGGGAUAUACGCUUGGGUUUGUCCAGCCUGAGCCUCUAUGCCAGAAAUGGCGCCUUCAUCGUGGGUUAGGACAUUUAAAUUUAAAAACUAUUCAGCACUGUUUGCUCUUGUCAGCUUGGUGGCAGA
DNA 1: CTTTAGCAAGGGACTATTCA
DNA 2: TGAATAGTCCCTTGCTAAAG
On to B2, for which the binding signal in series [1] amounted to 31.8 fold vs Nuclease K; in series [2], 9.86 fold vs Nuclease K; in series [3] it was 5.3 fold vs Nuclease K.
